Experimental data: article PMC8053098

Target: Escherichia coli MnmA, as-purified (aerobically purified, tag removed) (Escherichia coli) (UniProt P25745)
Experiment: SEC-MALS

Escherichia coli MnmA, as-purified (aerobically purified, tag removed) (from UniProt P25745 1-368) (enzyme)
stoichiometry N: 2
